Measured values: article doi:10.1101/311175 (bioRxiv, 2018)
Where two headings read alike, the source gives them in different places.

How the values were obtained:
[1] = target: the molecule itself
Number&Brightness = target: the molecule itself; assay: Number&Brightness

| Protein | stoichiometry N [1] | stoichiometry N (Number&Brightness) |
| --- | --- | --- |
| Influenza A virus hemagglutinin fused to mEGFP (HA-wt-mEGFP) (natural protein) not shown | 3.17 |  |
| E. coli glutamine synthetase fused to mEGFP (GlnA-mEGFP) (enzyme) MSAEHVLTMLNEHEVKFVDLRFTDTKGKEQHVTIPAHQVNAEFFEEGKMFDGSSIGGWKGINESDMVLMPDASTAVIDPFFADSTLIIRCDILEPGTLQGYDRDPRSIAKRAEDYLRSTGIADTVLFGPEPEFFLFDDIRFGSSISGSHVAIDDIEGAWNSSTQYEGGNKGHRPAVKGGYFPVPPVDSAQDIRSEMCLVMEQMGLVVEAHHHEVATAGQNEVATRFNTMTKKADEIQIYKYVVHNVAHRFGKTATFMPKPMFGDNGSGMHCHMSLSKNGVNLFAGDKYAGLSEQALYYIGGVIKHAKAINALANPTTNSYKRLVPGYEAPVMLAYSARNRSASIRIPVVSSPKARRIEVRFPDPAANPYLCFAALLMAGLDGIKNKIHPGEAMDKNLYDLPPEEAKEIPQVAGSLEEALNELDLDREFLKAGGVFTDEAIDAYIALRREEDDRVRMTPHPVEFELYYSV |  | 11.9 |
